Measured values: US12208130B2, “Treatment of women affected with polycystic ovary syndrome” (INSTITUT NATIONAL DE LA SANTE ET DE LA RECHERCHE MEDICALE …, priority 2017, dated 2025)
Where a SMILES comes first, the peptide text is derived from it. [ ]: non-standard residue; d: D form. dPhe(4-Cl) = N[C@H](Cc1ccc(Cl)cc1)C(=O)O; d2Nal = N[C@H](Cc1ccc2ccccc2c1)C(=O)O; dCit = NC(=O)NCCC[C@@H](N)C(=O)O; d3Pal = N[C@H](Cc1cccnc1)C(=O)O

Tested on: C57BL6/J (B6) dams and their female offspring
Test: Plasma testosterone, LH and LH pulsatility in adult diestrus female offspring
Type: in vivo, mouse
Protocol: FIGS. 3A-3J-4. Prenatal AMH treatment leads to hyperandrogenism and elevation in LH secretion/pulsatility. (FIG. 3A) Anogenital distance (AGD) was measured over post-natal days (P) 30, 35, 40, 50, and 60 in adult female control (n=6-14), PAMH (n=11-19), PAMH+GnRH antag (n=10), and GnRH antag (n=4) mice. […] One-way ANOVA and Tukey's multiple comparison post hoc test, F(19-183)=130.1, ***P<0.0001 among treatment groups and ages (P30, F(3, 43)=84.48, *P<0.05, ***P<0.0001; P35, F(3, 43)=116.9, *P<0.05, ***P<0.0001; P40, F(3, 43)=207.5, *P<0.05, ***P<0.0001; P50, F(3,27)=72.69, ***P<0.0001; P60, F(3,27)=110.5, ***P<0.0001). Bars from left to right in each group: Control, PAMH, PAMH+GnRH antag, GnRH antag. (FIG. 3B) Plasma testosterone was measured in adult females (P60) in diestrus. […] One-way ANOVA and Tukey's multiple comparison post hoc test, F(2,12)=28.67, ***P<0.0001. Bars from left to right: Control, PAMH, PAMH+GnRH antag. (FIG. 3C) Plasma LH was measured in adult females (P60) in diestrus. […] One-way ANOVA and Tukey's multiple comparison post hoc test, F(2,24)=257.3, *P<0.05, ***P<0.0001. Bars from left to right: Control, PAMH,
PAMH+GnRH antag. (FIG. 3D) Schematic representation of tail-tip blood sampling in adult diestrus female mice (3-4 months old). (FIG. 3E) Tail blood was collected every 10 min for 2 h and LH measured from 10 a.m-12 p.m in adult (P60) diestrus females (Control, n=8; PAMH, n=10; PAMH+GnRH antag, n=9; One-way ANOVA and Tukey's multiple comparison post hoc test, F(2,24)=57.06, *P<0.05, ***P<0.0001). Bars from left to right: Control, PAMH, PAMH+GnRH antag. (FIGS. 2F-1, 2F-2, 2F-3) Representative graphs for LH pulsatility over 2-hr in one female adult (P60) mouse of each treatment. Asterisks in (FIG. 3F) indicate the number of LH pulses/2-hr. (FIG. 3G) Mean circulating testosterone and LH levels were analyzed in pregnant PBS-treated (n=4) and AMH-treated (n=4) dams at embryonic day (E) 19.5 of gestation. […] (FIG. 3H) Relative mRNA expression of placental Cyp191a (aromatase) in control (n=4) and AMH (n=4)-treated pregnant animals at E19.5. Cyp191a expression in the placenta is higher in AMH-treated pregnant dams as compared to control-treated pregnant dams (Unpaired Student's t-test, t(6)=5.414, **P<0.005). Values are expressed as relative to the mean of each treatment. All values are expressed as mean±s.e.m. (FIGS. 3I-1, 3I-2, 3I-3, 3I-4) Dams were injected from E16.5 to E18.5 with either PBS (vehicle, n=9-11), AMH (n=8-10), AMH+GnRH antag (n=5) and trunk blood was collected at E19.5 for hormonal measurements by ELISA. Data were combined from at least two independent experiments. In FIGS. 3I-1, 3I-2, 3I-3, 3I-4: left bar: vehicle; middle bar: AMH; right bar: AMH+GnRH antagonist. […]

[1] = dams i.p. 0.12 mg/Kg/d E16.5-E18.5, adult female offspring in diestrus vs control

Molecule	PCOS-like neuroendocrine traits in the offspring (prenatal co-treatment of AMH with the GnRH antagonist)	plasma LH [1]	plasma testosterone [1]	LH pulse frequency / pulsatility (dams i.p. 0.12 mg/Kg/d E16.5-E18.5, adult female offspring in diestrus, tail blood every 10 min for 2 h)
CC(=O)N[C@H](Cc1ccc2ccccc2c1)C(=O)N[C@H](Cc1ccc(Cl)cc1)C(=O)N[C@H](Cc1cccnc1)C(=O)N[C@@H](CO)C(=O)N[C@@H](Cc1ccc(O)cc1)C(=O)N[C@H](CCCNC(N)=O)C(=O)N[C@@H](CC(C)C)C(=O)N[C@@H](CCCNC(=N)N)C(=O)N1CCC[C@H]1C(=O)N[C@H](C)C(N)=O [Cetrorelix acetate, Ac-D-2Nal-D-Phe(4-Cl)-D-3Pal-Ser-Tyr-D-Cit-Leu-Arg-Pro-D-Ala-NH2] (Ac-[d2Nal][dPhe(4-Cl)][d3Pal]SY[dCit]LRP[dA]-NH2)	prevented the appearance	–	–	–
proAMH: AMH proprotein (Origene Technologies, Cat # TP308397), injected prenatally 0.12 mg/Kg/d (protein, UniProt P03971 25-560, looked up, pro-form, AMH proprotein (Origene Technologies, Cat # TP308397), injected prenatally 0.12 mg/Kg/d) pro-form: LRAEEPAVGTSGLIFREDLDWPPGSPQEPLCLVALGGDSNGSSSPLRVVGALSAYEQAFLGAVQRARWGPRDLATFGVCNTGDRQAALPSLRRLGAWLRDPGGQRLVVLHLEEVTWEPTPSLRFQEPPPGGAGPPELALLVLYPGPGPEVTVTRAGLPGAQSLCPSRDTRYLVLAVDRPAGAWRGSGLALTLQPRGEDSRLSTARLQALLFGDDHRCFTRMTPALLLLPRSEPAPLPAHGQLDTVPFPPPRPSAELEESPPSADPFLETLTRLVRALRVPPARASAPRLALDPDALAGFPQGLVNLSDPAALERLLDGEEPLLLLLRPTAATTGDPAPLHDPTSAPWATALARRVAAELQAAAAELRSLPGLPPATAPLLARLLALCPGGPGGLGDPLRALLLLKALQGLRVEWRGRDPRGPGRAQRSAGATAADGPCALRELSVDLRAERSVLIPETYQANNCQGVCGWPQSDRNPRYGNHVVLLLKMQVRGAALARPPCCVPTAYAGKLLISLSEERISAHHVPNMVATECGCR	–	increased	increased	constitutively high LH pulsatility
